{
  "source": "paper PMC4132019",
  "target": "CRM1-HA (chromosome region maintenance 1) (human (HeLa cell cDNA)) (UniProt O14980)",
  "sequence (O14980 whole entry)": "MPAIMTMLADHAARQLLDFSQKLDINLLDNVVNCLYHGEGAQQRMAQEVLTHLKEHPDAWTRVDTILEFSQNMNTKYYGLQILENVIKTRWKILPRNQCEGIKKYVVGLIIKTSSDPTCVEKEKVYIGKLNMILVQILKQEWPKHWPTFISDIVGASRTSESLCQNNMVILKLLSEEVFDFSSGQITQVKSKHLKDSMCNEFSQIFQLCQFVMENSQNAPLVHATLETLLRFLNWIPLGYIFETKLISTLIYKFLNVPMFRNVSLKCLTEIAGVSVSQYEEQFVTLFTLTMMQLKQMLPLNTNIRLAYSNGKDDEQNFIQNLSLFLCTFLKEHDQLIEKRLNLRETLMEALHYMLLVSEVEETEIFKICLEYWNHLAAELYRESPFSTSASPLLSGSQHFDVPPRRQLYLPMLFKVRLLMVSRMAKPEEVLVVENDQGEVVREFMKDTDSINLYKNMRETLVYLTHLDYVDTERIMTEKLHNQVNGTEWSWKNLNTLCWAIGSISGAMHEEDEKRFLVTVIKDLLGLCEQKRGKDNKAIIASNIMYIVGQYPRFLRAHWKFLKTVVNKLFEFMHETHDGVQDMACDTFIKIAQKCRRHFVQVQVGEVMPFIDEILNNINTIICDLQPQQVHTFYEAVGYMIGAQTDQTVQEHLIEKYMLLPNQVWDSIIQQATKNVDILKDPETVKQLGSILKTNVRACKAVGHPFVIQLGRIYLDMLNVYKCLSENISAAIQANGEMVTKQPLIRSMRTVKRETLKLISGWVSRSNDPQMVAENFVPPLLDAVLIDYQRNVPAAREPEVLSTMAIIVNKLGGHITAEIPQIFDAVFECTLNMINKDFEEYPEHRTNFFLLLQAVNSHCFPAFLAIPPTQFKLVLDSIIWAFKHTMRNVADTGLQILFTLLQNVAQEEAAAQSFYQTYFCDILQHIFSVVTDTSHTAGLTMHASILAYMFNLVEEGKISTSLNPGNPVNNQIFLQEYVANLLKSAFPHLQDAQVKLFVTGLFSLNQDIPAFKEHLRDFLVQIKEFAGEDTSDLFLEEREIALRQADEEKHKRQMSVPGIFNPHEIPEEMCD",
  "experiment": "pull-down",
  "data": [
    {"substance": "NP-FLAG (wild-type nucleoprotein of influenza A/WSN/33) (from UniProt P15682 1-498) (natural protein)", "values": [
      {"measurement": "CRM1 binding (%WT)", "value": "100 % of WT"}
    ]}
  ]
}
